B1: Fab 3D6 (Fab, V domains shown)
VH: EVQLVESGGGLVQPGRSLRLSCAASGFTFNDYAMHWVRQAPGKGLEWVSGISWDSSSIGYADSVKGRFTISRDNAKNSLYLQMNSLRAEDMALYYCVKGRDYYDSGGYFTVAFDIWGQGTMVTVSS
VL: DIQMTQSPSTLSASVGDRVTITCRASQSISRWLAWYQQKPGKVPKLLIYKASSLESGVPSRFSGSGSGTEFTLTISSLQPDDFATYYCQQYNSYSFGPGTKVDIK
notes: immunoglobulin heavy chain variable region of 3D6; Ig gamma-1 chain constant region, fused after the variable region; as a Fab only part of the constant region is present; immunoglobulin light chain variable region of 3D6; Ig kappa chain constant region, fused after the variable region; Fab; residues numbered by Kabat convention; also called patient-derived near-germline antibody fragment; …
B2: Fab F240 (Fab, V domains shown)
VH: QVQLVQSGGGVVKPGASLRLACSASGFTFTDYYMSWIRQTPGKGLQWLAYITKDGSEKKYADSLQGRFAVSRDNANNLVFLQLNTVEDDDTGVYYCARDDGYYDRSGYYGVFDLWGQGIRVTVSS
VL: EFLLTQSPDSLAVTLGETATITCRSSRNILHSLNNKNYLAWYQQRPGQAPKLLVIWASMRVSGVADRFSGSGSGTDFALTISSLQPEDAAVYYCQHYYTTHRTFGQGTRVEIR
notes: immunoglobulin heavy chain variable region of F240; Ig gamma-1 chain constant region, fused after the variable region; as a Fab only part of the constant region is present; immunoglobulin light chain variable region of F240; Ig kappa chain constant region, fused after the variable region; Fab; residues numbered by Kabat convention; also called anti-gp41 Fab F240; source: HEK293T, transiently …

Target: T1, 15-mer peptide corresponding to residues 594-608 of HIV-1 gp160 (HIV-1 Consensus Subtype C Env Peptide Set) (HIV-1 consensus subtype C (stand-in: …, UniProt P04578, strain))
T1 construct: 15-mer of the HIV-1 consensus subtype C Env peptide set, corresponding to residues 594-608 of HIV-1 gp160; also called single peptide that corresponds to residues 594-608 of HIV-1 gp160; NIH HIV-1 gp41 peptide; source: bought: NIH AIDS Reagent Program, HIV-1 Consensus Subtype C Env Peptide Set (cat. No. 9499)
T1 chain: GIWGCSGKLICTTAV
Test: ELISA; 15-mer peptides adsorbed to microtiter plates at 10 ug/mL in 100 mM sodium bicarbonate pH 9.3 overnight at 4 C; Fab at 1 ug/mL in PBST-Milk, 1 hour at room temperature; goat anti-human HRP, absorbance at 450 nm
Conditions: both partners purified

| Binder | binding result |
| --- | --- |
| B1 | binds |
| B2 | binds |
